# Measured values from patent US20200055896.
# Legend:
# [1] = system: aP probe: FGF21-based peptide with D-alanine at P2 (VaPSQG)
# [2] = system: GP probe: fluorescence-quenched peptide of the region flanking the C-terminal human FGF21 cleavage site (VGPSQG)
# Chain of PREP in mouse plasma (chain, as listed by the source): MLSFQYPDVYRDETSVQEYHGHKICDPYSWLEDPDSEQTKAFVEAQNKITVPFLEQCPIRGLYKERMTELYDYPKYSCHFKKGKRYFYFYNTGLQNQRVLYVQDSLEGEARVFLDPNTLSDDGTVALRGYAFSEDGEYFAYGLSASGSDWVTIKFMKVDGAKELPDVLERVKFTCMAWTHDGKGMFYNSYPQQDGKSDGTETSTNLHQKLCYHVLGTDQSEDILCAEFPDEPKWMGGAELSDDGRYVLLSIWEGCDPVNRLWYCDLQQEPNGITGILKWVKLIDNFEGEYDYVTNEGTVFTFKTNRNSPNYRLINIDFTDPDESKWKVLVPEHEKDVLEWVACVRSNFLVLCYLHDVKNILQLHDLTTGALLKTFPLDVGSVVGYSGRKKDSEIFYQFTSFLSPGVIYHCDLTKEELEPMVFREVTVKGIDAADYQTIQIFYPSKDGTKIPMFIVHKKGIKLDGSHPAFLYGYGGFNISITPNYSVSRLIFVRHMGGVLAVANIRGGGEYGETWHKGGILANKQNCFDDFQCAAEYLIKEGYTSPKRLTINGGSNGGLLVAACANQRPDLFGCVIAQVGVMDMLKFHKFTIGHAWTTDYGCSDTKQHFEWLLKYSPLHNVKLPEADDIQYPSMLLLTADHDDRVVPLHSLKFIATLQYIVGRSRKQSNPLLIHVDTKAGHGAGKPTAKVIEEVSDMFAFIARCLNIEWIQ
substance,measurement,setting,value
Human DPPII/DPP7 (3438-SE),"cleavage of fluorescence-quenched peptide (FRET-quench assay), peptidase at 2.5 µg/ml",[1],did not exhibit an ability to cleave the aP probe
FAP in human serum,cleavage of the aP probe in immunodepleted human serum,[1],"signal is lost after FAP immunodepletion from human serum, but not in control IgG-immunodepleted serum"
PREP in mouse plasma,"cleavage of the GP probe in mouse plasma, with cpd60 and KYP-2047",[2],PREP has a smaller but significant contribution
